Data as given in patent US20170145104A1 (Bristol-Myers Squibb, published 2017).
Where a chain is given by its changes, count along the chain named. Numbers in names are those of the source. Where two headings read alike, the source gives them in different places. Each block holds one binder with its values, some of them ahead of it.

What was measured:
[1] = target: T1, human GITR, membrane bound (on activated human T cells and on 3A9-hGITR cells) (human, UniProt Q9Y5U5 26-241); assay: FACS binding to 3A9-hGITR transfectant, Geo-MFI (PE); EC50 table beside the curves; unit from the axis
T1 construct: whole, on cells; the cell is named under assay; also called huGITR; TNFRSF18
T1 sequence (looked up): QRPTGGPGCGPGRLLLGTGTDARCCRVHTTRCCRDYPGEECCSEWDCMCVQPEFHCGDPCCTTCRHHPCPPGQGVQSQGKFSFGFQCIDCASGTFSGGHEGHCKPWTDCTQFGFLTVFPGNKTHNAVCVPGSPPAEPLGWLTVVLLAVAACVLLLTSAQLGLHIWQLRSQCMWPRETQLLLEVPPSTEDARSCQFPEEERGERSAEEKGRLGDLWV

[2] = target: T1, human GITR, membrane bound (on …); assay: as above; remark: listed apart in the source

B1: Non mutated 28F3 (control of the VH CDR3 mutant panel) (antibody, V domains shown)
VH: QVQLVESGGGVVQPGRSLRLSCAASGFTFSSYGMHWVRQAPGKGLEWVAVIWYEGSNKYYADSVKGRFTISRDNSKNTLYLQMNSLRAEDTAVYYCARGGSMVRGDYYYGMDVWGQGTTVTVSS
VL: AIQLTQSPSSLSASVGDRVTITCRASQGISSALAWYQQKPGKAPKLLIYDASSLESGVPSRFSGSGSGTDFTLTISSLQPEDFATYYCQQFNSYPYTFGQGTKLEIK
notes: also called H6
- EC50 [1]: 0.334 nM

B3: 28F3 VH CDR3 mutant M98A, D106E, M111F (antibody, V domains shown)
VH: B1 VH with M102A, D106E, M111F
VL: B1 VL
notes: also called F4
- EC50 [1]: 19.1 nM

B5: 28F3 VH CDR3 mutant M98F, D106E (antibody, V domains shown)
VH: B1 VH with M102F, D106E
VL: B1 VL
notes: also called A5
- EC50 [1]: 0.683 nM

B6: 28F3 VH CDR3 mutant M98F (antibody, V domains shown)
VH: B1 VH with M102F
VL: B1 VL
notes: also called A6
- EC50 [1]: 0.797 nM

B7: 28F3 VH CDR3 mutant M98A (antibody, V domains shown)
VH: B1 VH with M102A
VL: B1 VL
notes: also called F6
- EC50 [1]: 1.5 nM

B13: 28F3 VH CDR3 mutant M98L (antibody, V domains shown)
VH: B1 VH with M102L
VL: B1 VL
notes: also called B6
- EC50 [1]: 0.757 nM

B14: 28F3 VH CDR3 mutant M98L, M111F (antibody, V domains shown)
VH: B1 VH with M102L, M111F
VL: B1 VL
notes: also called C2
- EC50 [2]: 1.38 nM

B15: 28F3 VH CDR3 mutant M98F, D106E, M111F (antibody, V domains shown)
VH: B1 VH with M102F, D106E, M111F
VL: B1 VL
notes: also called B4
- EC50 [1]: 54 nM

B18: 28F3 VH CDR3 mutant M98A, M111L (antibody, V domains shown)
VH: B1 VH with M102A, M111L
VL: B1 VL
notes: also called G1
- EC50 [2]: 187 nM

B19: 28F3 VH CDR3 mutant M98F, D106E, M111L (antibody, V domains shown)
VH: B1 VH with M102F, D106E, M111L
VL: B1 VL
notes: also called B3
- EC50 [2]: 417 nM

B20: 28F3 VH CDR3 mutant M98L, D106E, M111F (antibody, V domains shown)
VH: B1 VH with M102L, D106E, M111F
VL: B1 VL
notes: also called C4
- EC50 [1]: 0.638 nM

B23: 28F3 VH CDR3 mutant M98I, M111F (antibody, V domains shown)
VH: B1 VH with M102I, M111F
VL: B1 VL
notes: also called D2
- EC50 [2]: 1.33 nM

B25: 28F3 VH CDR3 mutant M98I (antibody, V domains shown)
VH: B1 VH with M102I
VL: B1 VL
notes: also called C6
- EC50 [1]: 1.42 nM

B27: 28F3 VH CDR3 mutant M98I, D106E (antibody, V domains shown)
VH: B1 VH with M102I, D106E
VL: B1 VL
notes: also called C5; M98I/D160E
- EC50 [1]: 0.349 nM

B30: 28F3 VH CDR3 mutant M98F, M111L (antibody, V domains shown)
VH: B1 VH with M102F, M111L
VL: B1 VL
notes: also called B1
- EC50 [2]: 51.8 nM

B31: 28F3 VH CDR3 mutant M98L, D106E (antibody, V domains shown)
VH: B1 VH with M102L, D106E
VL: B1 VL
notes: also called B5
- EC50 [1]: 0.311 nM

B32: 28F3 VH CDR3 mutant M98I, D106E, M111L (antibody, V domains shown)
VH: B1 VH with M102I, D106E, M111L
VL: B1 VL
notes: also called D3
- EC50 [2]: 1.07 nM

B36: 28F3 VH CDR3 mutant M98A, D106E, M111L (antibody, V domains shown)
VH: B1 VH with M102A, D106E, M111L
VL: B1 VL
notes: also called G3
- EC50 [2]: 62 nM

B38: 28F3 VH CDR3 mutant M98I, M111L (antibody, V domains shown)
VH: B1 VH with M102I, M111L
VL: B1 VL
notes: also called D1
- EC50 [2]: 1.03 nM

B39: 28F3 VH CDR3 mutant M98A, M111F (antibody, V domains shown)
VH: B1 VH with M102A, M111F
VL: B1 VL
notes: also called G2
- EC50 [2]: 171 nM

B40: 28F3 VH CDR3 mutant M98A, D106E (antibody, V domains shown)
VH: B1 VH with M102A, D106E
VL: B1 VL
notes: also called F5
- EC50 [1]: 0.401 nM

B45: 28F3 VH CDR3 mutant M98L, D106E, M111L (antibody, V domains shown)
VH: B1 VH with M102L, D106E, M111L
VL: B1 VL
notes: also called C3
- EC50 [2]: 1.22 nM

Second part, the binder after the results:

- EC50 [2]: 3.7 nM
B2: 28F3 VH CDR3 mutant M98V, M111F (antibody, V domains shown)
VH: B1 VH with M102V, M111F
VL: B1 VL
notes: also called A2

- EC50 [2]: 620 nM
B4: 28F3 VH CDR3 mutant M98Y, M111L (antibody, V domains shown)
VH: B1 VH with M102Y, M111L
VL: B1 VL
notes: also called H1

- EC50 [1]: 2.29 nM
B8: 28F3 VH CDR3 mutant M98S, D106E (antibody, V domains shown)
VH: B1 VH with M102S, D106E
VL: B1 VL
notes: also called E5

- EC50 [2]: 20.4 nM
B9: 28F3 VH CDR3 mutant M98Q, D106E, M111L (antibody, V domains shown)
VH: B1 VH with M102Q, D106E, M111L
VL: B1 VL
notes: also called E3

- EC50 [1]: 0.968 nM
B10: 28F3 VH CDR3 mutant M98Q, D106E (antibody, V domains shown)
VH: B1 VH with M102Q, D106E
VL: B1 VL
notes: also called D5

- EC50 [2]: 60.3 nM
B11: 28F3 VH CDR3 mutant M98S, M111L (antibody, V domains shown)
VH: B1 VH with M102S, M111L
VL: B1 VL
notes: also called F1

- EC50 [2]: 2.87 nM
B12: 28F3 VH CDR3 mutant M98V, D106E, M111L (antibody, V domains shown)
VH: B1 VH with M102V, D106E, M111L
VL: B1 VL
notes: also called A3

- EC50 [2]: 0.674 nM
B16: 28F3 VH CDR3 mutant M98L, M111L (antibody, V domains shown)
VH: B1 VH with M102L, M111L
VL: B1 VL
notes: also called C1

- EC50 [1]: 3.33 nM
B17: 28F3 VH CDR3 mutant M98Q, D106E, M111F (antibody, V domains shown)
VH: B1 VH with M102Q, D106E, M111F
VL: B1 VL
notes: also called D4

- EC50 [2]: 246 nM
B21: 28F3 VH CDR3 mutant M98Y, M111F (antibody, V domains shown)
VH: B1 VH with M102Y, M111F
VL: B1 VL
notes: also called H2

- EC50 [2]: 3.53 nM
B22: 28F3 VH CDR3 mutant M98V, M111L (antibody, V domains shown)
VH: B1 VH with M102V, M111L
VL: B1 VL
notes: also called A1

- EC50 [2]: ~1250 nM
B24: 28F3 VH CDR3 mutant M98S, D106E, M111L (antibody, V domains shown)
VH: B1 VH with M102S, D106E, M111L
VL: B1 VL

- EC50 [1]: 0.34 nM
B26: 28F3 VH CDR3 mutant M98V (antibody, V domains shown)
VH: B1 VH with M102V
VL: B1 VL
notes: also called H5

- EC50 [2]: 21.7 nM
B28: 28F3 VH CDR3 mutant M98Q, M111L (antibody, V domains shown)
VH: B1 VH with M102Q, M111L
VL: B1 VL
notes: also called E1

- EC50 [1]: 1.68 nM
B29: 28F3 VH CDR3 mutant M98Y (antibody, V domains shown)
VH: B1 VH with M102Y
VL: B1 VL
notes: also called G6

- EC50 [2]: 183 nM
B33: 28F3 VH CDR3 mutant M98Y, D106E, M111L (antibody, V domains shown)
VH: B1 VH with M102Y, D106E, M111L
VL: B1 VL
notes: also called H3

- EC50 [1]: 0.772 nM
B34: 28F3 VH CDR3 mutant M98V, D106E, M111F (antibody, V domains shown)
VH: B1 VH with M102V, D106E, M111F
VL: B1 VL
notes: also called A4

- EC50 [1]: 1.44 nM
B35: 28F3 VH CDR3 mutant M98Q (antibody, V domains shown)
VH: B1 VH with M102Q
VL: B1 VL
notes: also called D6

- EC50 [1]: 3.51 nM
B37: 28F3 VH CDR3 mutant M98S (antibody, V domains shown)
VH: B1 VH with M102S
VL: B1 VL
notes: also called E6

- EC50 [1]: 0.58 nM
B41: 28F3 VH CDR3 mutant M98V, D106E (antibody, V domains shown)
VH: B1 VH with M102V, D106E
VL: B1 VL
notes: also called H4

- EC50 [2]: 16.6 nM
B42: 28F3 VH CDR3 mutant M98Q, M111F (antibody, V domains shown)
VH: B1 VH with M102Q, M111F
VL: B1 VL
notes: also called E2

- EC50 [2]: 246 nM
B43: 28F3 VH CDR3 mutant M98S, M111F (antibody, V domains shown)
VH: B1 VH with M102S, M111F
VL: B1 VL
notes: also called F2

- EC50 [1]: 0.798 nM
B44: 28F3 VH CDR3 mutant M98Y, D106E (antibody, V domains shown)
VH: B1 VH with M102Y, D106E
VL: B1 VL
notes: also called G5
